The values that follow come from paper PMC8189437 (Molecular Cell, 2021).

In general, stoichiometry N refers to the number of molecules, sites or subunits per partner or assembly.

First the molecules themselves.
B3: Gid8 with a C-terminal twin-Strep tag (natural protein)
chain: MTISTLSNETTKSGSCSGQGKNGGKDFTYGKKCFTKEEWKEQVAKYSAMGELYANKTIHYPLKIQPNSSGGSQDEGFATIQTTPIEPTLPRLLLNYFVSMAYEDSSIRMAKELGFIRNNKDIAVFNDLYKIKERFHIKHLIKLGRINEAMEEINSIFGLEVLEETFNATGSYTGRTDRQQQQQQQQFDIDGDLHFKLLLLNLIEMIRSHHQQENITKDSNDFILNLIQYSQNKLAIKASSSVKKMQELELAMTLLLFPLSDSADSGSIKLPKSLQNLYSISLRSKIADLVNEKLLKFIHPRIQFEISNNNSKFPDLLNSDKKIITQNFTVYNNNLVNGSNGTKITHISSDQPINEKMSSNEVTAAANSVWLNQRDGNVGTGSAATTFHNLENKNYWNQTSELLSSSNGKEKGLEFNNYYSSEFPYEPRLTQIMKLWCWCENQLHHNQIGVPRVEN

One series concerns the target GST-WDR26 (human) (UniProt Q9H7D7). In words: cryo-EM structure.
The series “crystal structure” concerns the molecule itself. In words: crystal structure.
A further series concerns the target T1, Gid9 (S. cerevisiae, UniProt P40492 1-516).
T1 sequence: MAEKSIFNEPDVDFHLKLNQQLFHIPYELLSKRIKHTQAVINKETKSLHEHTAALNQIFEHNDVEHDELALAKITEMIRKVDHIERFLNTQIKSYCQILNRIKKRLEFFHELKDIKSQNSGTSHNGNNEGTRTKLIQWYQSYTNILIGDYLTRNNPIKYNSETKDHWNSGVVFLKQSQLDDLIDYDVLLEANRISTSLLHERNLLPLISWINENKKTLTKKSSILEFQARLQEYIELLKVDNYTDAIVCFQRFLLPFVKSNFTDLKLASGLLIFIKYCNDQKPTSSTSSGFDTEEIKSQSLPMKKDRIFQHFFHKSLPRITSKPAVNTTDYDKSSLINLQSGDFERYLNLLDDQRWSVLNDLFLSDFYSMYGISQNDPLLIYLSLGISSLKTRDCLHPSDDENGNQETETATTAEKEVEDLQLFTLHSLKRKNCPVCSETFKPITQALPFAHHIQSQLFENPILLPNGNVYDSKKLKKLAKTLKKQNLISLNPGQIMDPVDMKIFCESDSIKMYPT
In words: cryo-EM structure.

The target in series [1] is B3. In words: cryo-EM structure.
The target in a further series is T2, Gid1 (S. cerevisiae, UniProt P53076).
T2 sequence: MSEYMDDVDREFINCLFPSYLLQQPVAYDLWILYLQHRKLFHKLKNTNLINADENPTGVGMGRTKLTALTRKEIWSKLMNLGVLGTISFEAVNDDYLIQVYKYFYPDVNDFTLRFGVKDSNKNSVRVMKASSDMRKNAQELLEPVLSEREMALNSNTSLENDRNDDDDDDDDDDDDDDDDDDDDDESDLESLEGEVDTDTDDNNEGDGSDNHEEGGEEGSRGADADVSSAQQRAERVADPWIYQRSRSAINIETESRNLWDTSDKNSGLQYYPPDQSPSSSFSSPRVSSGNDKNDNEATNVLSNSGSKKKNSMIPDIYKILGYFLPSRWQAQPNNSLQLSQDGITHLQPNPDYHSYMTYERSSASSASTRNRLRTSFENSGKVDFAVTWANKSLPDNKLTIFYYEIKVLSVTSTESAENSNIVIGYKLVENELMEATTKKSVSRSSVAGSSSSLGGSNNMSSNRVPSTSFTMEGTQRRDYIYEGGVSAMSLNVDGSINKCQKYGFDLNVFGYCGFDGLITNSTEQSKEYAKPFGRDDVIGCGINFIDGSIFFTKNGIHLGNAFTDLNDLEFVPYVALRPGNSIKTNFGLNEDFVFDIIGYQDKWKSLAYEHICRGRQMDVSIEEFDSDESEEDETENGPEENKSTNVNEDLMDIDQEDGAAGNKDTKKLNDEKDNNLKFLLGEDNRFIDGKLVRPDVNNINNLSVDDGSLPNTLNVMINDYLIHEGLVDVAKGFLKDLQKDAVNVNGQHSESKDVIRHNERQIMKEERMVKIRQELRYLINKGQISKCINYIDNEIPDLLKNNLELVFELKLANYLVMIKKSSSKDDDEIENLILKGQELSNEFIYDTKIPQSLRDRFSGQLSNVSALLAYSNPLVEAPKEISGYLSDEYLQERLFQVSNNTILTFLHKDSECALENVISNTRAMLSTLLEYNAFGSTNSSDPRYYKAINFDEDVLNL
In words: cryo-EM structure.

The next series deals with T3, Gid5 (S. cerevisiae, UniProt P40547).
T3 sequence: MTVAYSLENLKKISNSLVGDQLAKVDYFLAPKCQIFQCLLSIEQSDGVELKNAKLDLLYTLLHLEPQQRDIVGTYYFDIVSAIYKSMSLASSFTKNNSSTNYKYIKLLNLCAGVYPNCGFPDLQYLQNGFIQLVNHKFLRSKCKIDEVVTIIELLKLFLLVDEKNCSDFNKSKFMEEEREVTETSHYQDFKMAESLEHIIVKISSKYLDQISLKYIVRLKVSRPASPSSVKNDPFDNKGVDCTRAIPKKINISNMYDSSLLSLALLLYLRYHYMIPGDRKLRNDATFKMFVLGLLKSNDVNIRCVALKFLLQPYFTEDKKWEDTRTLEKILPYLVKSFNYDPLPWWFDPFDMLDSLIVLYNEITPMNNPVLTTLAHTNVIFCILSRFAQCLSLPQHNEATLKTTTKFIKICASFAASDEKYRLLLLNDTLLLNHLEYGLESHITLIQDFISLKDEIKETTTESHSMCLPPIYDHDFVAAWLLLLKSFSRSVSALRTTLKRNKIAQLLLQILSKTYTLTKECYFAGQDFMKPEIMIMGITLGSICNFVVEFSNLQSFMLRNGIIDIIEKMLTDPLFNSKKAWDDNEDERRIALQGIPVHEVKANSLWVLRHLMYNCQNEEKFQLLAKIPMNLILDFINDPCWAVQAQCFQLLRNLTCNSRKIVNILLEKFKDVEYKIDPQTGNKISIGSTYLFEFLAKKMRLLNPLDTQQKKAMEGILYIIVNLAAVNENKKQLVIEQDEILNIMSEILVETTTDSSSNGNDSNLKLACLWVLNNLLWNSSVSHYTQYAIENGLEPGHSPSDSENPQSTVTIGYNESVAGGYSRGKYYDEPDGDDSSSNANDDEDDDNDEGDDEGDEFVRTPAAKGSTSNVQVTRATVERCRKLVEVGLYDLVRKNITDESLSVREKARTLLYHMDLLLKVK
In words: cryo-EM structure.

“GST-WDR26 (from UniProt Q9H7D7 1-661) (natural protein)” returned a stoichiometry N in the series with GST-WDR26 (human) of 2.

B1: fructose-1,6-bisphosphatase (Fbp1), C-terminally 6xHis-tagged (enzyme)
chain: PTLVNGPRRDSTEGFDTDIITLPRFIIEHQKQFKNATGDFTLVLNALQFAFKFVSHTIRRAELVNLVGLAGASNFTGDQQKKLDVLGDEIFINAMRASGIIKVLVSEEQEDLIVFPTNTGSYAVCCDPIDGSSNLDAGVSVGTIASIFRLLPDSSGTINDVLRCGKEMVAACYAMYGSSTHLVLTLGDGVDGFTLDTNLGEFILTHPNLRIPPQKAIYSINEGNTLYWNETIRTFIEKVKQPQADNNNKPFSARYVGSMVADVHRTFLYGGLFAYPCDKKSPNGKLRLLYEAFPMAFLMEQAGGKAVNDRGERILDLVPSHIHDKSSIWLGSSGEIDKFLDHIGKSQ
With B1, the “stoichiometry N” value in the series “crystal structure” amounted to 4.

B2: Gid2 (natural protein)
chain: MSELLDSFETEFAKFYTDSNLEETNLQKCLDHTHEFKSQLKKLKAHLNKHIQESKPEVYNKLSDKEKQKFKRKRELIIEKLSKSQRQWDHSVKKQIKYVSQQSNRFNKSTLNKLKEFDIDSVYVNKLPKETMENVNEAIGYHILRYSIDNMPLGNKNEAFQYLKDVYGITNKESTEFIEMGQIVHDLKKGDTESCLKWCSNEMESLSSNHTALSSLKFDLYTLSAMQIVKHGNPVELYYQITQNAPLDCFRHREKELMQNVVPLLTKSLIGQPIEDIDSKVNKELKECTSLFIKEYCAAKHIFFDSPLFLIVLSGLISFQFFIKYKTIRELAHVDWTTKDELPFDVKLPDFLTHFHPIFICPVLKEETTTENPPYSLACHHIISKKALDRLSKNGTITFKCPYCPVNTSMSSTKKVRFVML
Take B2: the binding result (with Gid9; in series [1]) was “binds” each time. Consider B3, for which the binding result in the series with Gid9 and in the series with Gid1 was “binds” in each case.

B4: Gid4 (Δ1-116) (domain or fragment)
chain: TVCTNYLRPRMQFTGYQISGYKRYQVTVNLKTVDLPKKDCTSLSPHLSGFLSIRGLTNQHPEISTYFEAYAVNHKELGFLSSSWKDEPVLNEFKATDQTDLEHWINFPSFRQLFLMSQKNGLNSTDDNGTTNAAKKLPPQQLPTTPSADAGNISRIFSQEKQFDNYLNERFIFMKWKEKFLVPDALLMEGVDGASYDGFYYIVHDQVTGNIQGFYYHQDAEKFQQLELVPSLKNKVESSDCSFEFA
As for B4, in the series with Gid5, the binding result is recorded as “binds”.
